Reference: PMC11826918, “Generation of antagonistic biparatopic anti-CD30 antibody from an agonistic antibody by precise epitope determination and utilization of structural characteristics of CD30 molecule” (Antibody Therapeutics, 2025)

Key:
Test in all cases: SPR; Biacore T200; antibody captured on anti-human Fc (CM5 chip); CD30-MBP flowed at 0, 2, 20 nM (T426: 0, 20, 200 nM), contact 90 s, dissociation 300 s; fit to a 1:1 binding mode; rough-level analysis
Conditions in all cases: both partners purified
[1] = biological target: T1, BpT25-6
T1 construct: T25 Fv, N side; T6 Fv, C side; one Fab of each Fv; knobs-into-holes Fc; source: Expi293 fragments joined by intein-mediated protein trans-splicing, purified (Superdex 200 Increase); copies: + + +

[2] = biological target: T2, BpT25-427
T2 construct: T25 Fv, N side; T427 Fv, C side; one Fab of each Fv; knobs-into-holes Fc; source: Expi293 fragments joined by intein-mediated protein trans-splicing, purified (Superdex 200 Increase); copies: + + +

[3] = biological target: T3, BpT427-6
T3 construct: T427 Fv, N side; T6 Fv, C side; one Fab of each Fv; knobs-into-holes Fc; source: Expi293 fragments joined by intein-mediated protein trans-splicing, purified (Superdex 200 Increase); copies: + + +

[4] = biological target: T4, BpT105-6
T4 construct: T105 Fv, N side; T6 Fv, C side; one Fab of each Fv; knobs-into-holes Fc; source: Expi293 fragments joined by intein-mediated protein trans-splicing, purified (Superdex 200 Increase); copies: + + +

[5] = biological target: T5, BpT107-6
T5 construct: T107 Fv, N side; T6 Fv, C side; one Fab of each Fv; knobs-into-holes Fc; source: Expi293 fragments joined by intein-mediated protein trans-splicing, purified (Superdex 200 Increase); copies: + + +

[6] = biological target: T6, BpT25-405
T6 construct: T25 Fv, N side; T405 Fv, C side; one Fab of each Fv; knobs-into-holes Fc; source: Expi293 fragments joined by intein-mediated protein trans-splicing, purified (Superdex 200 Increase); copies: + + +

[7] = biological target: T7, BpT10-405
T7 construct: AC10 Fv, N side; T405 Fv, C side; one Fab of each Fv; knobs-into-holes Fc; source: Expi293 fragments joined by intein-mediated protein trans-splicing, purified (Superdex 200 Increase); copies: + + +

[8] = biological target: T8, BpT107-427
T8 construct: T107 Fv, N side; T427 Fv, C side; one Fab of each Fv; knobs-into-holes Fc; source: Expi293 fragments joined by intein-mediated protein trans-splicing, purified (Superdex 200 Increase); copies: + + +

[9] = biological target: T9, BpT104-6
T9 construct: T104 Fv, N side; T6 Fv, C side; one Fab of each Fv; knobs-into-holes Fc; source: Expi293 fragments joined by intein-mediated protein trans-splicing, purified (Superdex 200 Increase); copies: + + +
T9 sequence (chain, as listed by the source, chain 1 of 4): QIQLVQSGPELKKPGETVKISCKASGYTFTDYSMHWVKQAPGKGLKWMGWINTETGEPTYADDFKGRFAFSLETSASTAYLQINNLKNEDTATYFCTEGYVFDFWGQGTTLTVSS
T9 sequence (chain, as listed by the source, chain 2 of 4): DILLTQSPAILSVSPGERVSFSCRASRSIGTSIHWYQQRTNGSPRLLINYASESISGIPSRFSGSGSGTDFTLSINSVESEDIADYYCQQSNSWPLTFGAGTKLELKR
T9 sequence (chain, as listed by the source, chain 3 of 4): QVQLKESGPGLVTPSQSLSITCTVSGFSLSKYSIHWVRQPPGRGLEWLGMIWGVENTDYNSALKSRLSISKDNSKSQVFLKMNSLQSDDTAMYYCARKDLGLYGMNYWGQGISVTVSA
T9 sequence (chain, as listed by the source, chain 4 of 4): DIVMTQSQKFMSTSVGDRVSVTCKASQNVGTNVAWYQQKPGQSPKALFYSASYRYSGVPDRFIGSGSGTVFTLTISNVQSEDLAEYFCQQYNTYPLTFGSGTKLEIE

T1 sequence (chain, as listed by the source, chain 1 of 4): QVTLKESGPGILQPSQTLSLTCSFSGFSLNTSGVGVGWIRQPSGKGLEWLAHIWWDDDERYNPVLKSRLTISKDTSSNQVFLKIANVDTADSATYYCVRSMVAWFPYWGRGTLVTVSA
T1 sequence (chain, as listed by the source, chain 2 of 4): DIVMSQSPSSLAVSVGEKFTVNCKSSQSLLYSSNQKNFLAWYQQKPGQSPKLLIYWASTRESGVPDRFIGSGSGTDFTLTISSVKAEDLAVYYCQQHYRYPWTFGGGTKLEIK
T2 sequence (chain, as listed by the source, chain 3 of 4): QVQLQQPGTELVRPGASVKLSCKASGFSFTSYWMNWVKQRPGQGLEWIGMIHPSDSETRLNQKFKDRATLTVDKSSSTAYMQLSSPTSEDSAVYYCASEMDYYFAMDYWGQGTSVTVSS
T2 sequence (chain, as listed by the source, chain 4 of 4): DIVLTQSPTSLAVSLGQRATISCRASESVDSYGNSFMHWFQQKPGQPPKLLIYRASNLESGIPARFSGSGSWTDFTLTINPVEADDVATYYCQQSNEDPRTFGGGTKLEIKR
T4 sequence (chain, as listed by the source, chain 1 of 4): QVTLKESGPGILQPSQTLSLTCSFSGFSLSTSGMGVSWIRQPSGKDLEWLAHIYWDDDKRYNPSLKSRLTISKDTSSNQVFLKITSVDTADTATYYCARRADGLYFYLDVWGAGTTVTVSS
T4 sequence (chain, as listed by the source, chain 2 of 4): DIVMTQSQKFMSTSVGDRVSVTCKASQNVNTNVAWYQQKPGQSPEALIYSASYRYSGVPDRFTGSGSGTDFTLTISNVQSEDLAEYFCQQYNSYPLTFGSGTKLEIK
T8 sequence (chain, as listed by the source, chain 1 of 4): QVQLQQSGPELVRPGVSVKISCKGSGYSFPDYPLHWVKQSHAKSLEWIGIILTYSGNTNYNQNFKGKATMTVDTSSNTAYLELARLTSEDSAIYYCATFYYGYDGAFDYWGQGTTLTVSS
T8 sequence (chain, as listed by the source, chain 2 of 4): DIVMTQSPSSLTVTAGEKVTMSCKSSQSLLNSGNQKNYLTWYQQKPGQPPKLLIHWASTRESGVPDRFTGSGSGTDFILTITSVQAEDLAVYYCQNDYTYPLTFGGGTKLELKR

B1: Maltose-binding protein-fused CD30 (domain or fragment)
chain: FPQDRPFEDTCHGNPSHYYDKAVRRCCYRCPMGLFPTQQCPQRPTDCRKQCEPDYYLDEADRCTACVTCSRDDLVEKTPCAWNSSRVCECRPGMFCSTSAVNSCARCFFHSVCPAGMIVKFPGTAQKNTVCEPASPGVSPACASPENCKEPSSGTIPQAKPTPVSPATSSASTMPVRGGTRLAQEAASKLTRAPDSPSSVGRPSSDPGLSPTQPCPEGSGDCRKQCEPDYYLDEAGRCTACVSCSRDDLVEKTPCAWNSSRTCECRPGMICATSATNSCARCVPYPICAAETVTKPQDMAEKDTTFEAPPLGTQPDCN
modifications: Construct 1-336 includes signal peptide 1-18, taken as cleaved on secretion; C-terminal MBP carrier and His tag left out; disulfide-bonded, likely glycosylated (Expi293)
Kd [1]: 0.46 nM | Kd [2]: 0.57 nM | Kd [3]: 0.26 nM | Kd [4]: 0.37 nM | Kd [5]: 0.37 nM | Kd [6]: 0.91 nM | Kd [7]: 0.63 nM | Kd [8]: 0.6 nM | Kd [9]: 0.59 nM
